Source: article PMC5467207, “Single-peptide DNA-dependent RNA polymerase homologous to multi-subunit RNA polymerase” (Nature Communications, 2017)

B1: YonO (Bacillus subtilis subsp. subtilis str. 168) (protein)
chain: MKGKKDGLNKQVHIYSIDTSAFYNDQENKLHNKILKSYRYRDHLRKLEHVDKKHKKYITQRIISLKEKLYNAFNDHNQIRTLRTDSLKDNNVISLFDSVLTRTLGIKENSLSEEIMVVQTYHFQILRDIIDKGFIHNNEKYVYFTSSAGQIRTKKSCFIKQSTLDKYQNALTCGLSVEHINAQGGSSINKWNSYMALSNSASSSWEIDIDKAIVVNDLETNVSSLVDYIDRDTYEITRKIMDIPIEHTDGCGMMLPSLSQKSFMVRLPWVKGLLVPFDFRKFAEKHSSFIVKDVYGKEWDIIKDDIQIIFTKSQFKMWKYYDSWDDYRYKFKKYGCLGAKLNEEDPSVEGKLTYQMLQTLTDITDEELKQISSKTVSEITQLGTDKETMMKVLGATEKNKHKTSLQEALLIYPELLNDDHTKEIIKNKKKSMIKDAKSGKLLVSDARYTYLCPDLYAFCERLFLGIESPKGLLSGSDVHCSLYDEGYIDILRSPHLFREHGVRWNKKNEEYEKWFITPGVYTSIHDPISKLLQFDNDGDKALIISDELIVNIAKRNMADIVPLYYEMSVAQKQEINSRNIYEALTLAYGINIGEYSNNITKIWNSDNINLDVIKWLCMENNFTIDFAKTLFMPTRPDHVDEKIKDYIKNKVPHFFINAKDKEEHSVESINESTVNKLDSIIPSDRINFAAVAGKFDYRFLLKNKEIKLNEAVINEYKRLDRNKKWLMNDEEAKPGQKLYVYKIIKQKLLEIHNDDGFITDVLVKHLYKKKSKYKSTLWECFGDIVLENIKHNLKTFKGCCICGKAFKPTSNKAKYCQSCGKKKERDKYKKYNKKRINHR
notes: N-terminal 6xHis-tag, pET-28a, expressed in E. coli T7 Express; single chain, ~100 kDa

What was measured:
[1] = system: T1, Nc1nc2c(ncn2[C@@H]2O[C@H](COP(=O)(O)OP(=O)(O)OP(=O)(O)O)[C@@H](O)[C@H]2O)c(=O)[nH]1; experiment: misincorporation in assembled elongation complexes, Urea-PAGE, Michaelis-Menten fit; format: biochemical, Escherichia coli; details: misincorporation (non-cognate NTP for the template base), assembled elongation complex, pH 8.5, MgCl2
T1 construct: core enzyme without sigma, ~400 kDa five-subunit core (2α, β, β′, ω); 6xHis tag on the RNAP; with DNA-directed RNA polymerase subunit alpha; DNA-directed RNA polymerase subunit omega

[2] = substrate: Nc1ncnc2c1ncn2[C@@H]1O[C@H](COP(=O)(O)OP(=O)(O)OP(=O)(O)O)[C@@H](O)[C@H]1O; experiment: RNA extension in assembled elongation complexes, Urea-PAGE, Michaelis-Menten fit; format: biochemical, Bacillus subtilis; details: 10 °C, assembled elongation complex (template DNA, RNA primer), 20 mM Tris-HCl pH 8.5, 40 mM KCl, 10 mM MgCl2
[3] = substrate: Nc1nc2c(ncn2[C@@H]2O[C@H](COP(=O)(O)OP(=O)(O)OP(=O)(O)O)[C@@H](O)[C@H]2O)c(=O)[nH]1; experiment: misincorporation in assembled elongation complexes, Urea-PAGE, Michaelis-Menten fit; format: biochemical, Bacillus subtilis; details: misincorporation (non-cognate NTP for the template base), assembled elongation complex, pH 8.5, MgCl2

| Molecule | Km [1] | Km [2] | Km [3] |
| --- | --- | --- | --- |
| E. coli core msRNAP (Escherichia coli K-12) | 458 ± 23 µM |  |  |
| B1 |  | 1.8 ± 0.7 µM | 126 ± 41 µM |
